Reference: the DeepSol protein solubility set

Test: soluble on expression in E. coli; label from the status in PepcDB or PDB records

Q: With “MNEKYEAVIGLEIHVQMDTKTKMFCGCKVEFGAEPNTNVCPVCLGMPGALPIVNKRAVEYAIRASLALNCEVHEESVFARKHYFYPDLPKGYQISQYEKPLATNGWVELNLPNGEKKKVRIRRLHIEEDAGKNIHEGDKTLVDLNRAGTPLMEIVTEPDIRTPEEARLFLEKLRNIMRYAGVSKADMEKGQLRCDINVSIRPKGSKEFGTRVEIKNVNSFRFVQKALEYEIERQINVVEEGGEVVQETRTFDPQTGKTYPMRTKEEAEDYRYFPDPDLVPLKVKKEWIEEIKKNMPELPDQRFERLIKEYGLSEYEAGILVNHKEVGDFFEEAVRHFKEPKGIVNWLINDLLGLLRDKGISIEESPVKPEHLAELVKLIKEKVISTKIGKEVIKEMVETGKTPSQIVEEKGLKQITDENQIKELVKKIFEKHPKEVERLKQGEEKLIGFFVGQVMRETRGKANPQVVNKVIRELVKEV” as the sequence, how does the “soluble on expression in E. coli” value read?
A: The value was “soluble”.

Q: For “MNENKLRRLIKKNEYEKLDFKLKIELFTESVKKELAKDICAIANSRGGRGYIIIGVEDKTKKIVGVDADYITEERVQQIVASRIEPPVPISLEECFLDGKRLLVIVIFNSYQKPYQIRENGAFYIRRGSTTDIMRKQELLSEFQKGISFNLETCPIVNSNIDFLNEELVRRYFYLKGIKISKENREFLLSSSNIIHKNNISGKSMCTLGGLLVFSDVNSIYIPHNMIKIRNLLGGEQTFIIRGNILDMMKSMEKKLREIVPNEYPVALIIDTIRNILIYRDYSQYNKIVEVVLGKKELTVYCPGEIVKRYRDGRIGYIKRNMWIYEKIISLDSRDGEMNYNLGGKEVKESFTNKVKVITVNEENITKFIFNKYRTIGLEHHHHHH”, which “soluble on expression in E. coli” value is on record?
A: The value was “soluble”.

Q: Which “soluble on expression in E. coli” value does the source give for “MNERERVLAIKGGDHQAFIDLYNEYWSQVYDFSRLYIATIADAEEIVQDVFVKLWESRHLLKEDENIKGFLFIVTRNIVFNKNKKRVNENLFKTSVLVAYGNEGYYNSTTVEEDYCASQLKIFIDRLINSLPEQQRKCFLLSREESLSYKEIAERLGISQKTVEIHMGKALKFLKDKVKRGWEILLSLLSF” here?
A: Its value is “not soluble”.

Q: For “MNEYFFPKLTAVEALAPYRLRTTWSTGEVLEVDVGDILRKIPDLAPILDPEAFARVHIAEWEGSVEWFDTEFGRDNVYAWAKEQAGEVSHEMFGDWMHRNNLSLTTAAEALGISRRMVSYYRTAHKIIPRTIWLACLGWEATRPETKTLPRTLPAAYAKGVSASLS”, which “soluble on expression in E. coli” value is on record?
A: Its value is “soluble”.

Q: With “MNFHHLAYWQDKALSLAIENRLFINGEYTAAAENETFETVDPVTQAPLAKIARGKSVDIDRAMSAARGVFERGDWSLSSPAKRKAVLNKLADLMEAHAEELALLETLDTGKPIRHSLRDDIPGAARAIRWYAEAIDKVYGEVATTSSHELAMIVREPVGVIAAIVPWNFPLLLTCWKLGPALAAGNSVILKPSEKSPLSAIRLAGLAKEAGLPDGVLNVVTGFGHEAGQALSRHNDIDAIAFTGSTRTGKQLLKDAGDSNMKRVWLEAGGKSANIVFADCPDLQQAASATAAGIFYNQGQVCIAGTRLLLEESIADEFLALLKQQAQNWQPGHPLDPATTMGTLIDCAHADSVHSFIREGESKGQLLLDGRNAGLAAAIGPTIFVDVDPNASLSREEIFGPVLVVTRFTSEEQALQLANDSQYGLGAAVWTRDLSRAHRMSRRLKAGSVFVNNYNDGDMTVPFGGYKQSGNGRDKSLHALEKFTELKTIWISLEA” as the sequence, how does the “soluble on expression in E. coli” value read?
A: Its value is “soluble”.

Q: For “MNFKESRAIYLQIADRICDDILLGQYEEEGRIPSVREYASIVEVNANTVMRSYEYLQSQEVIYNKRGIGFFVASGAKMLIHSLRKEQFLKEEVGSFFRQLYTLGISIKEIEKMYYEFIQRQNQ”, which “soluble on expression in E. coli” value is on record?
A: Its value is “soluble”.

Q: Which “soluble on expression in E. coli” value does the source give for “MNFMEIGTPLFEGAKKLLWLGGGELGKEMVIEAQRMGIETVVVDRYDMAPAMHVAHRKYVVNMLDGNAIKSIIKKENPDAIITEIEAINTDALLELESEGYKVIPNAKAVKICMNRIELRKLAAEKVKVPTTQYGFAENPEEVKKICKDIGYPCIIKPEMSSSGHGHEVVYNESEVEQKFKEAITHARGKSEQVIVEEYVKIDRELTVLTYRYLDDKGVVTKTITPIEHQRPSDVYYYVESWHPSTVDKDIIERAQEYATRVVNELGGFGIFGVEIIVSGNRVLFSEVSPRPHDTGLVTMASLDINEFQIHVRSALGLPTPEVKIVSPAAAHVILANNEGWAPKFLNVEKALQIPGVQIRLFGKPSTYYKRRMGVVLATGNTVEEAKEKARKAASLVLVT” here?
A: The value was “soluble”.

Q: For “MNFNGSLFERLADKTQKKTDLNEEERITASIATHLAKLLGTRAGSVNTLPDYGLPELNNASLSAHDTVRQSRLAIEKAIRDYEPRLSEVHVMSDESSWCVLKRTFSIDASLDMNGVKKTVVFSIAVAGDGHVILN”, which “soluble on expression in E. coli” value is on record?
A: The value was “not soluble”.

Q: With “MNGAAQADLWRLVVLNTYGGVYMDIDATLVWPLDKLLGDSQELYIRIKNNTEITNYFIATAPNNPDLQATIEQVVYNVNHYEPSMGVYHSTGPTVLNNILSAKAVIHTQDRKYVCIQGTFTNEHFQYIDKPRGKWLEHHHHHH” as the sequence, how does the “soluble on expression in E. coli” value read?
A: Its value is “not soluble”.

Q: For “MNGDVQSVIRGYLERAQVAKTMSDAGRWNEAGDLLRQLMTDVKSCKISASNRDEHDARNTFLRALEANLKLVQQNVRDEDDLHEAMTRQSGSPEPPADPDVWSKPSPPLPSSSKFGATKKGVGAAGPRPREISKSTSSMSTNPADVKPANPTQGILPQNSAGDSFDASAYDAYIVQAVRGTMATNTENTMSLDDIIGMHDVKQVLHEAVTLPLLVPEFFQGLRSPWKAMVLAGPPGTGKTLIARAIASESSSTFFTVSSTDLSSKWRGDSEKIVRLLFELARFYAPSIIFIDEIDTLGGQRGNSGEHEASRRVKSEFLVQMDGSQNKFDSRRVFVLAATNIPWELDEALRRRFEKRIFIPLPDIDARKKLIEKSMEGTPKSDEINYDDLAARTEGFSGADVVSLCRTAAINVLRRYFRYDTKSLRGGELTAAMESLKAELVRNIDFEAALQAVSPSAGPDTMLKCKEWCDSFGAM”, which “soluble on expression in E. coli” value is on record?
A: Its value is “not soluble”.

Q: With “MNHKVHHHHHHIEGRHMAVVKEVLEIAEKIKNMEIRGAGKIARSAAYALQLQAEKSKATNVDEFWKEMKQAAKILFETRPTAVSLPNALRYVMHRGKIAYSSGADLEQLRFVIINAAKEFIHNSEKALERIGEFGAKRIEDGDVIMTHCHSKAAISVMKTAWEQGKDIKVIVTETRPKWQGKITAKELASYGIPVIYVVDSAARHYMKMTDKVVMGADSITVNGAVINKIGTALIALTAKEHRVWTMIAAETYKFHPETMLGQLVEIEMRDPTEVIPEDELKTWPKNIEVWNPAFDVTPPEYVDVIITERGIIPPYAAIDILREEFGWALKYTEPWED” as the sequence, how does the “soluble on expression in E. coli” value read?
A: Its value is “soluble”.

Q: Which “soluble on expression in E. coli” value does the source give for “MNHLTNQYVMLHDEKRCIGCQACTVACKVLNDVPEGFSRVQVQIRAPEQASNALTHFQFVRVSCQHCENAPCVSVCPTGASYRDENGIVQVDKSRCIGCDYCVAACPFHVRYLNPQTGVADKCNFCADTRLAAGQSPACVSVCPTDALKFGRLDESEIQRWVGQKEVYRQQEARSGAVSLYRRKEVHQEGKA” here?
A: Its value is “not soluble”.

Q: For “MNIAKIVREAREQSRLTTLDFATGIFDEFIQLHGDRSFRDDGAVVGGIGWLGDQAVTVVGIQKGKSLQDNLKRNFGQPHPEGYRKALRLMKQAEKFGRPVVTFINTAGAYPGVGAEERGQGEAIARNLMEMSDLKVPIIAIIIGEGGSGGALALAVADRVWMLENSIYAILSPEGFASILWKDGTRAMEAAELMKITSHELLEMDVVDKVISEIGLSSKELIKSVKKELQTELARLSQKPLEELLEERYQRFRKY”, which “soluble on expression in E. coli” value is on record?
A: The value was “not soluble”.

Q: For “MNIDELIAIDVHTHAEEPCCGPRDDGYDEFQAGMAKYFKNPAGHKGMLPTVQETAAYYRERKIGCVIFPVDAERETGFRRYENEEVAKIAAENSDIMIPFASIDPAKGKAGAREARRLVREFGVKGFKFHPTMQGFYPNDRMAYPLYEAIAEEGAITLFHTGQTGVGAGLRGGMAMRLKFSNPIHLDDVAVDFPDMPIILAHPSFPWQEEALSVATHKPNVYIDMSGWSPKYFPPILVQYANSLLKHKMLFGSDWPAMTPERWLNDFANISIKDEVRPLILKENARRLLKLLEHHHHHH”, which “soluble on expression in E. coli” value is on record?
A: Its value is “not soluble”.

Q: With “MNIDIKEAHRRMLYLLQSFDTVCKKHDIDYWLDYGTLLGAIRHQGFIPWDTDTDVGMLRSDYALFLEKGVPELPQDIFFQTPETEPAMAPWSWLVEARLRDRHSRYVPDKKTPAEPMQFGGLQLDLFIYDWDGKYENALSNSFERNLSESRIHLRLDEVEYLDTARFEGVEFPVPSGYDAYLTRCYGDYRTFPPEEERQIPEVVAWSVLEHHHHHH” as the sequence, how does the “soluble on expression in E. coli” value read?
A: Its value is “soluble”.
